This is an account of results in patent US20240010747A1, “ANTI-MRP4 (ENCODED BY ABCC4 GENE) ANTIBODIES AND USES THEREOF” (Kenjockety Biotechnology, Inc., priority 2020, published 2024).

For assay [1], the target named is T1, human ABCC4 (human, UniProt O15439 1-1325).
T1 construct: Expressed on murine C6 cells stably transfected with human ABCC4 cDNA with C-terminal FLAG tag; also called MRP4; Multidrug resistance protein 4; not shown: C-terminal fused FLAG tag
T1 sequence: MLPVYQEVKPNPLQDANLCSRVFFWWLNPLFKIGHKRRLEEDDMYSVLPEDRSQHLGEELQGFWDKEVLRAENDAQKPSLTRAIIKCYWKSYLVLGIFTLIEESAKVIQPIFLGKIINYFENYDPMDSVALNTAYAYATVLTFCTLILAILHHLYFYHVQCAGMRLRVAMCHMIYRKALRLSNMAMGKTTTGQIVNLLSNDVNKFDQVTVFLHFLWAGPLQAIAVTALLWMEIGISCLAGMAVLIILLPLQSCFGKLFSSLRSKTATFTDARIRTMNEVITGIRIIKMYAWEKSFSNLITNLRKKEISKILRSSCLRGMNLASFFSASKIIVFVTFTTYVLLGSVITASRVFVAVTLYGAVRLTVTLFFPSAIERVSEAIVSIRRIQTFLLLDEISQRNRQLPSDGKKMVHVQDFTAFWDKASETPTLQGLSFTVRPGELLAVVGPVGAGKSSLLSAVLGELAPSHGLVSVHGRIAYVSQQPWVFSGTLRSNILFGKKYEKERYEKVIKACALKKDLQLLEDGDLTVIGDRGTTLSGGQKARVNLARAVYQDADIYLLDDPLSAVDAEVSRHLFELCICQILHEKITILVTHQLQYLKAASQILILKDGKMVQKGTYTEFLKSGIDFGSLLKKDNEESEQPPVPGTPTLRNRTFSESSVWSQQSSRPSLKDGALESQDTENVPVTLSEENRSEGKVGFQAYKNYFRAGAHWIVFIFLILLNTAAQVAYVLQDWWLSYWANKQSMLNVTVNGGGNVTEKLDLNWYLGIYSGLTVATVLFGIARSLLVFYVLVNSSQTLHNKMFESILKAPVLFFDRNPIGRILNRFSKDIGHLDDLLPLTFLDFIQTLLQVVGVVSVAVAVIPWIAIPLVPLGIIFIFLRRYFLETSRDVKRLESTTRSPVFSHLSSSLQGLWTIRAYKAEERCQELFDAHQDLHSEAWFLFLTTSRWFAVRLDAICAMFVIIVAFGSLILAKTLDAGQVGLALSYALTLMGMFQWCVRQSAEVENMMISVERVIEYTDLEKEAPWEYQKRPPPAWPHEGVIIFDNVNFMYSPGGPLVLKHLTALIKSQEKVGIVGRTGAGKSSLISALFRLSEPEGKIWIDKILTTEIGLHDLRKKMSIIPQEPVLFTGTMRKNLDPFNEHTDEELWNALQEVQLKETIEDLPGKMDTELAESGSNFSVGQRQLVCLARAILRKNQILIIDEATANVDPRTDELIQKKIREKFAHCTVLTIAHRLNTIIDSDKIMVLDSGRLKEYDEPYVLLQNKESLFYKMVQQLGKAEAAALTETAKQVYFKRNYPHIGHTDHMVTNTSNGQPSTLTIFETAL
Nature of the assay: FACS, C6 cells stably expressing human ABCC4; + = MFI>3x background. The protocol:
Antibody binding to cells was evaluated by flow cytometry. Murine C6 cells stably transfected to express human or cynomolgus ABCC4 were washed once in flow cytometry buffer (PBS+2% FBS+0.02% sodium azide), resuspended at 2×10\hat{ }6 cells/mL in flow cytometry buffer, and dispensed into 96-well microtiter plates at 0.1 mL/well. Recombinant antibodies were added to cells at 5 ug/mL for initial binding confirmation, or serially diluted from 100 ug/mL in flow cytometry buffer. After incubating cells on ice for 30 min, cells were washed twice with flow cytometry buffer. Bound antibody was detected with PE-labeled F(ab′)₂ fragment goat anti-human IgG (Jackson ImmunoResearch) and evaluated on an Attune N×T flow cytometer. EC50 is calculated to be the concentration of antibody that gives half maximal response.
In general terms: In flow cytometry, cells or beads pass a laser one at a time.

The target in assay [2] is T2, human ABCC4 (Homo sapiens, UniProt O15439).
T2 construct: expressed in transfected cells
T2 sequence (O15439 1-1325): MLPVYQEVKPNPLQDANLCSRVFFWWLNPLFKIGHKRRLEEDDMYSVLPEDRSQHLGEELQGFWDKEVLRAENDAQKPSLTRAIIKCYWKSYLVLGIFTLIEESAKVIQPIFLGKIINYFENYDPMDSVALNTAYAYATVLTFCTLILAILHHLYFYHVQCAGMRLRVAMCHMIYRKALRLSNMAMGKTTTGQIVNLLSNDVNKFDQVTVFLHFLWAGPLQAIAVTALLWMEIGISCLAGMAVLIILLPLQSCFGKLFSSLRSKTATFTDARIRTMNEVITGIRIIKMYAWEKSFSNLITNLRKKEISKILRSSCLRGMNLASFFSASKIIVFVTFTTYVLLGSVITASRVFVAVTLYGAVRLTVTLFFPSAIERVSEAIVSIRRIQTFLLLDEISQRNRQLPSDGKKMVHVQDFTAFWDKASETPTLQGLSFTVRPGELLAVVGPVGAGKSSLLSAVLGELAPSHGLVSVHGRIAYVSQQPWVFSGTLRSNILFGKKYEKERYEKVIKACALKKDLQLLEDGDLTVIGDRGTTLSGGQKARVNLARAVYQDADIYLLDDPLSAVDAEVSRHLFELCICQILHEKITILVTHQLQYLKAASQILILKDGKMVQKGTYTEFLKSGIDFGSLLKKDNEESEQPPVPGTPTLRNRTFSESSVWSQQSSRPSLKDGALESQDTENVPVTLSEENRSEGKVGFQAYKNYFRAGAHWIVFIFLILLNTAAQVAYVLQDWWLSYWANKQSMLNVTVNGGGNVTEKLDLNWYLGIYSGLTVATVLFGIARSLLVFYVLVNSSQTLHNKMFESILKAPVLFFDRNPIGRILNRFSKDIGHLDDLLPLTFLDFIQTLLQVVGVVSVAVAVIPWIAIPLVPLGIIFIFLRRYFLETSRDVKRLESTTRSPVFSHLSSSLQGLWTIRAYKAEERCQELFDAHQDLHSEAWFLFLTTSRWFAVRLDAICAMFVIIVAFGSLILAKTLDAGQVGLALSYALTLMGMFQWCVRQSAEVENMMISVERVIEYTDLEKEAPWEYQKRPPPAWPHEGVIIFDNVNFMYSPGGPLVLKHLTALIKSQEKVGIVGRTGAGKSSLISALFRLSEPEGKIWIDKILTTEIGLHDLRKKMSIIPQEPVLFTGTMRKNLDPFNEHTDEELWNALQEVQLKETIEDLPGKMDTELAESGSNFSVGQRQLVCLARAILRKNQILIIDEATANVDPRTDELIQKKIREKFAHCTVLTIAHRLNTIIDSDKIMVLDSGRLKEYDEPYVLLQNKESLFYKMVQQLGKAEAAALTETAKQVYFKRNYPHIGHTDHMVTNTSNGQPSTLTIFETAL
As to the kind of experiment: Flow cytometry (FACS) binding to C6 cells stably transfected to express human ABCC4 (different experiment, Table 4). The note with it: C6 cells stably transfected to express human ABCC4, FACS; different experiment, Table 4. An outline of the steps: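 Murine C6 cells stably expressing FLAG-tagged human or cynomolgus ABCC4 incubated 30 min on ice with antibodies, either 5 ug/mL or serially diluted from 100 ug/mL, in PBS+2% FBS+0.02% azide. Detection with PE anti-human IgG F(ab′)2 by flow cytometry; EC50 at half-maximal MFI; negative below background, positive >3× background.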

B1: C4.1148 (antibody, V domains shown)
VH: EVQLVESDGGLVQPGRSLKLSCAASGFTFSDYYMAWVRQAPPKGLEWVATISYDAFTTYYRDSVKGRFTISRDNAKTILFLQMDSLRSEDTATYYCIRLSTRYKGVMDAWGHGASVTVSS
VL: DIQMTQSPSNLAASPGESVSINCKASETIYKYLAWYQQKPGRTNKLLIYSGSTLQSGTPSRFSGSGSGTDFTLTIRNLEPEDFGRYYCQHHVEYPPTFGAGTKLELK
On to B1, for which the binding result in assay [1] is given as “binds”. Moreover, the “Human ABCC4 binding” value in assay [2] is “+ (Positive (+)=MFI>3× background level)”.

B2: C4.1059 (antibody, V domains shown)
VH: QVQLLQSGAALVKPGASVKMSCKPSGYTFTDYWVSWVKQSHGKSLEWIGEIYPNNGATNFNEKFKGKATLTVDKSTSTAYMELSRLTSEDSAIYYCPSRKYGYNWNFDYWGQGTMVTVSS
VL: DIVLTQSPALAVSLGQRATISCWASQSVSISRYNLMHWYQQKPGQQPKLLIYRASNLASGIPARFSGSGSGTDFTLTINPVQADDIATYYCQQSGESPWTFGGGTKLELK
Take B2: the binding result in assay [1] is “binds”. In addition, the “Human ABCC4 binding” value in assay [2] is recorded as “+ (Positive (+)=MFI>3× background level)”.

B3: C4.1139 (antibody, V domains shown)
VH: EVQLVESDGGLVQPGRSLKLSCAASGFTFSDYYMAWVRQAPTKGLYWVASISYDGSTTYYRDSVKGRFTISRDNAKSTLYLQMGSLRSEDTATYYCARLSIRYKGVMDAWGRGASVTVSS
VL: DVVMTQSPSNLAASPGESVSINCKASKSIGKFLAWYQQKPGRPNKLLIYSGSTLQSGTPSRFSGSGSGTDFTLTIRNLEPGDFGLYYCQHHIEYPPTFGPGTKLELK
As to B3, in assay [1], the binding result is given as “binds”. For the same molecule, the “Human ABCC4 binding” value in assay [2] is recorded as “+ (Positive (+)=MFI>3× background level)”.
